# Experiments:
# O=[N+]([O-])c1ncc[nH]1 = test: nitrite release, Griess reaction, Michaelis-Menten plot; format: biochemical, Mycobacterium sp. JS330; conditions: 25-400 µM 2NI, 25 °C, no metal or cofactor
# From the text: nitrite release, Griess reaction, Michaelis-Menten plot on NnhA
# [1] = target: the molecule itself; test: SEC; Superdex 200 prep column during purification, 20 mM Tris pH 7.5, 50 mM NaCl; molecular weight estimate assumes a globular complex
# [2] = target: the molecule itself; test: crystal structure; crystals in space groups P1 (6 molecules in the asymmetric unit) and H32 (one protomer, hexamer by crystallographic symmetry); grown in polyacrylic acid 5100, MgCl2, HEPES pH 7.2, or PEG 3350 with sodium malonate pH 7.0; data at 100 K
# [3] = 1.1 µM enzyme, soluble variant from directed evolution
molecule,measurement,setting,value
NnhA (Mycobacterium sp. JS330),Km,O=[N+]([O-])c1ncc[nH]1; 1.1 µM enzyme,93.1 ± 14.1 µM
same,kcat,O=[N+]([O-])c1ncc[nH]1; 1.1 µM enzyme,0.0212 ± 0.00267 s⁻¹
same,kcat/Km,O=[N+]([O-])c1ncc[nH]1; 1.1 µM enzyme,200 M⁻¹ s⁻¹
NnhA (Mycobacterium sp. JS330; C352A/G14D/K73R/T2I),Km,O=[N+]([O-])c1ncc[nH]1; 3.3 µM enzyme,24.5 ± 3.3 µM
same,kcat,O=[N+]([O-])c1ncc[nH]1; 3.3 µM enzyme,0.0122 ± 0.000333 s⁻¹
same,kcat/Km,O=[N+]([O-])c1ncc[nH]1; 3.3 µM enzyme,500 M⁻¹ s⁻¹
NnhA (Mycobacterium sp. JS330; G14D/K73R/T2I),Km,O=[N+]([O-])c1ncc[nH]1; [3],109.8 ± 7.6 µM
same,kcat,O=[N+]([O-])c1ncc[nH]1; [3],0.3 ± 0.007 s⁻¹
same,kcat/Km,O=[N+]([O-])c1ncc[nH]1; [3],2730 M⁻¹ s⁻¹
"soluble NnhA (2-nitroimidazole nitrohydrolase A, T2I-G14D-K73R variant) (enzyme, 2-nitroimidazole nitrohydrolase A (NnhA) of Mycobacterium sp; JS330, UniProt F4ZCI3.1; electron density from R11 to R379 at the C-terminus; Variant found by four rounds of directed evolution (error-prone PCR); also called NnhA-T2I-G14D-K73R; soluble T2I, G14D, K73R NnhA mutant; source: no nickel column; not shown: His6, N-terminal, kept) MITVDKRPSSRGYDDWRLSDIPQYKDGISTYEFVRATHEADYRTHQAEPVAGRTFGFNGIGRLTEVALHMPTRYTLHDQSSQYKESPSFFQGLMGVPDRGPVDLAAFQRETEELATAFENNGIKVHWVDYPEEPANPYGPLMGHVFLSWGSIWRGGSVISRFGFLPGMVGVSEYLAKWAWNTLNIPPLVAITEGAMEPGACNMIADEVLVTCLSASYDQRGTDQLVAAISKTSGTEEFHNLQLRPAVEGFFNKATGACAHPDININAIDVGKLVVSPAALDWDARTWLYDNNFELIEADPDEQREFLAPCNVLLLEPGKVIAHADCHKTNQKIRDAGVEVIEVTGTEIRKACGGIKCRVMQINREPGPTLADVRNRVWR",stoichiometry N,[1],~4
same,stoichiometry N,[2],6
"NnhA-T2I-G14D-K73R-C357A (enzyme, 2-nitroimidazole nitrohydrolase A (NnhA) of Mycobacterium sp; JS330, UniProt F4ZCI3.1; also called NnhA C357A; source: no nickel column) MITVDKRPSSRGYDDWRLSDIPQYKDGISTYEFVRATHEADYRTHQAEPVAGRTFGFNGIGRLTEVALHMPTRYTLHDQSSQYKESPSFFQGLMGVPDRGPVDLAAFQRETEELATAFENNGIKVHWVDYPEEPANPYGPLMGHVFLSWGSIWRGGSVISRFGFLPGMVGVSEYLAKWAWNTLNIPPLVAITEGAMEPGACNMIADEVLVTCLSASYDQRGTDQLVAAISKTSGTEEFHNLQLRPAVEGFFNKATGACAHPDININAIDVGKLVVSPAALDWDARTWLYDNNFELIEADPDEQREFLAPCNVLLLEPGKVIAHADCHKTNQKIRDAGVEVIEVTGTEIRKACGGIKARVMQINREPGPTLADVRNRVWR",stoichiometry N,[2],6

# From PMC11659421, “Structural insights into the enzymatic breakdown of azomycin-derived antibiotics by 2-nitroimdazole hydrolase (NnhA)” (Communications Biology, 2024)
